Results on one protein are retold here after article PMC2267159 (BMC Biology, 2008).

The data set deals with the molecule itself. The data set can be described thus: SDS-PAGE.

For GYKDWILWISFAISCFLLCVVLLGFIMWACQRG [TMD peptide of HA2 (strain X:31) of influenza virus, unlabeled], the binding result is “binds”.
